Measured values published in patent US20140193401A1 (published 2014).

Legend:
Experiment in all cases: SPR (BIAcore 3000), mAb 1B7 immobilised on CM5 chip, toxin injected
PTx-S1-220 E155A = target: T1, PTx-S1-220 E155A (Bordetella pertussis, UniProt P04977 35-254)
T1 chain: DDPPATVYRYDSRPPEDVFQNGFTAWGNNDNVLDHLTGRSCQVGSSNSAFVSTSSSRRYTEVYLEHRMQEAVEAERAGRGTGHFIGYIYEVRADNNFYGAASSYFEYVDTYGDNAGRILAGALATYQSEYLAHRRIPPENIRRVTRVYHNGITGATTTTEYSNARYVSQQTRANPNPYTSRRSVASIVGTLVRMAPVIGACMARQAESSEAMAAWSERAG

PTx-S1-220 T156A = target: T2, PTx-S1-220 T156A (Bordetella pertussis, UniProt P04977 35-254)
T2 chain: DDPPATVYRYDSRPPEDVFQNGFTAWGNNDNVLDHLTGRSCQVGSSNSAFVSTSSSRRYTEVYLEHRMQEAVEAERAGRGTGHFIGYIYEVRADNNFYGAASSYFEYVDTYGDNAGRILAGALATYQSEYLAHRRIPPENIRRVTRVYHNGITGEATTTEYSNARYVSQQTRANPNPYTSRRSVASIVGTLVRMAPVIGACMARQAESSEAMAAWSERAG

PTx-S1-220 Y161A = target: T3, PTx-S1-220 Y161A (Bordetella pertussis, UniProt P04977 35-254)
T3 chain: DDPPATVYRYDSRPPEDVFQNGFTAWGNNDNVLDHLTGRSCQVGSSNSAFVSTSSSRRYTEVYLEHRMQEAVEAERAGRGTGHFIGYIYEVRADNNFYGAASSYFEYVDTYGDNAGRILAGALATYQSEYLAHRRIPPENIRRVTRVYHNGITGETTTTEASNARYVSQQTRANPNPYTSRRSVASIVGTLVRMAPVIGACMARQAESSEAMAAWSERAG

PTx-S1-220 E210A = target: T4, PTx-S1-220 E210A (Bordetella pertussis, UniProt P04977 35-254)
T4 chain: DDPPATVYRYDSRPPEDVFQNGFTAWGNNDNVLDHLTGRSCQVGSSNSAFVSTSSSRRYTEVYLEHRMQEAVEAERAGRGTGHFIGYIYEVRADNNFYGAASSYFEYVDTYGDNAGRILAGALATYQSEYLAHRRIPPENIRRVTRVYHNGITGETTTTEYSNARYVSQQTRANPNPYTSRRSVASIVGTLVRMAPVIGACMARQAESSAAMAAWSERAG

PTx-S1-220 T158A = target: T5, PTx-S1-220 T158A (Bordetella pertussis, UniProt P04977 35-254)
T5 chain: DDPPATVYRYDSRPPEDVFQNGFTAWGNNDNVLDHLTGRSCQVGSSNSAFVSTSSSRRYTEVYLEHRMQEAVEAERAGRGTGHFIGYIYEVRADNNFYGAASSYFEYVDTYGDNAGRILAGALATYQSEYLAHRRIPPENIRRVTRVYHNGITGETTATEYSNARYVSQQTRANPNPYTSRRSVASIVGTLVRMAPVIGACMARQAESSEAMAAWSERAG

PTx-S1-220 Y166A = target: T6, PTx-S1-220 Y166A (Bordetella pertussis, UniProt P04977 35-254)
T6 chain: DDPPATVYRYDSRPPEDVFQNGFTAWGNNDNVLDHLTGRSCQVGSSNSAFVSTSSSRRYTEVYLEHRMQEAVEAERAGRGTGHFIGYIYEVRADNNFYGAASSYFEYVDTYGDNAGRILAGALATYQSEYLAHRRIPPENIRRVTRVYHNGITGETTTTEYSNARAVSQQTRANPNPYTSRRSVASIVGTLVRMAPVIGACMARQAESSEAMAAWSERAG

PTx-S1-220 T153A = target: T7, PTx-S1-220 T153A (Bordetella pertussis, UniProt P04977 35-254)
T7 chain: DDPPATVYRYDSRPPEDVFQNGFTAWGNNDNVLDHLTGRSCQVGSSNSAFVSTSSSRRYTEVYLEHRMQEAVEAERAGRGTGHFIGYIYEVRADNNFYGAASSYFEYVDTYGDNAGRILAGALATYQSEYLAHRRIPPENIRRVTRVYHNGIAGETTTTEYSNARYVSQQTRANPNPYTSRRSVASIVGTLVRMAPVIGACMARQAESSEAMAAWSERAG

PTx-S1-220 H83A = target: T8, PTx-S1-220 H83A (Bordetella pertussis, UniProt P04977 35-254)
T8 chain: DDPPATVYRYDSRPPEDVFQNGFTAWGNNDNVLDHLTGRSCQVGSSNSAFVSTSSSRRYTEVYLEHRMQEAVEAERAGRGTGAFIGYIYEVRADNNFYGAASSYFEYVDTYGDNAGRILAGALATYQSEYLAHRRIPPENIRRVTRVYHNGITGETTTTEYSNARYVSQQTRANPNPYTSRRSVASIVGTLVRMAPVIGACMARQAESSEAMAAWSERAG

PTx-S1-220 N150A = target: T9, PTx-S1-220 N150A (Bordetella pertussis, UniProt P04977 35-254)
T9 chain: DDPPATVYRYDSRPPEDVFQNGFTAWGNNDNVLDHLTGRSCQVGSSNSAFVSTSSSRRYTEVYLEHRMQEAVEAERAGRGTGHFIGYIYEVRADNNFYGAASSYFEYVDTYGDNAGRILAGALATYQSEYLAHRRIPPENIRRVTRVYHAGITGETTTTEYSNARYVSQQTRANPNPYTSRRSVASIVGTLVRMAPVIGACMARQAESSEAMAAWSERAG

B1: murine monoclonal antibody 1B7 (antibody, V domains shown)
VH: EVQLQQSGSELVRPGASVKLSCKASGYKFTSYWMHWVKQRPGQGLEWIGNIFPGSGSTNYDEKFNSKATLTVDTSSNTAYMQLSSLTSEDSAVYYCTRWLSGAYFDYWGQGTTLTVSS
VL: DIQMTQSPALMSASPGEKVTMTCSASSSVSFMYWYQQKPRSSPKPWIYLTSNLPSGVPARFSGSGSGTSYSLTISSMEAEDAATYYCQQWSSHPPTFGSGTKLEIKR
notes: also called mAb 1B7; 1B7 mAb
Q: B1 was tested. Which koff (PTx-S1-220 E155A) did it give?
A: 0.0011 s⁻¹

Q: What about the koff (PTx-S1-220 T156A) of the same binder?
A: 0.0011 s⁻¹

Q: And the koff (PTx-S1-220 Y161A)?
A: 0.0013 s⁻¹

Q: And the koff (PTx-S1-220 E210A)?
A: 0.0016 s⁻¹

Q: And the koff (PTx-S1-220 T158A)?
A: 0.0013 s⁻¹

Q: What about the koff (PTx-S1-220 Y166A) of the same binder?
A: 0.0014 s⁻¹

Q: What about the koff (PTx-S1-220 T153A) of the same binder?
A: 0.002 s⁻¹

Q: What about the koff (PTx-S1-220 H83A) of the same binder?
A: 0.01 s⁻¹

Q: What about the koff (PTx-S1-220 N150A) of the same binder?
A: 0.008 s⁻¹
